{"source": "paper doi:10.1101/2022.11.28.518166", "about": "“The direct interaction with transcriptional factor TEAD4 implied a straightforward regulation mechanism of tumor suppressor NF2” (bioRxiv, 2022)", "binders": {"B1": {"name": "TEAD4 YBD domain (217-434) with N-terminal SUMO and 6xHis tag (domain or fragment, human, UniProt Q15561 217-434, looked up)", "chain": "RSVASSKLWMLEFSAFLEQQQDPDTYNKHLFVHIGQSSPSYSDPYLEAVDIRQIYDKFPEKKGGLKDLFERGPSNAFFLVKFWADLNTNIEDEGSSFYGVSSQYESPENMIITCSTKVCSFGKQVVEKVETEYARYENGHYSYRIHRSPLCEYMINFIHKLKHLPEKYMMNSVLENFTILQVVTNRDTQETLLCIAYVFEVSASEHGAQHHIYRLVKE", "notes": "Detected in the pull-downs with an antibody against 6xHis; also called SUMO-TEAD4; SUMO-tagged TEAD4-YBD; source: Escherichia coli BL21 (DE3), purified (Ni-NTA, Superdex 200); not shown: SUMO, N-terminal, kept; His6, N-terminal, kept"}, "B2": {"name": "GST-NF2-507-595 WT (domain or fragment, UniProt P35240 507-595, looked up)", "chain": "FDFKDTDMKRLSMEIEKEKVEYMEKSKHLQEQLNELKTEIEALKLKERETALDILHNENSDRGGSSKHNTIKKLTLQSAKSRVAFFEEL"}, "B3": {"name": "GST-YAP 47-131 (domain or fragment, UniProt P46937 47-131, looked up)", "chain": "APPAGHQIVHVRGDSETDLEALFNAVMNPKTANVPQTVPMRLRKLPDSFFKPPEPKSHSRQASTDAGTAGALTPQHVRAHSSPAS", "notes": "YAP (Yes-associated protein), residues 47-131"}, "B4": {"name": "TEAD4-2CS (C335S/C367S), non-palmitoylated mutant of TEAD4-YBD (domain or fragment, human, UniProt Q15561 217-434, looked up)", "chain": "RSVASSKLWMLEFSAFLEQQQDPDTYNKHLFVHIGQSSPSYSDPYLEAVDIRQIYDKFPEKKGGLKDLFERGPSNAFFLVKFWADLNTNIEDEGSSFYGVSSQYESPENMIITCSTKVSSFGKQVVEKVETEYARYENGHYSYRIHRSPLSEYMINFIHKLKHLPEKYMMNSVLENFTILQVVTNRDTQETLLCIAYVFEVSASEHGAQHHIYRLVKE", "notes": "TEAD4, human, YBD, residues 217-434 as TEAD4-YBDHis, with C335S and C367S; source: recombinant; not shown: His6, N-terminal, kept"}}, "conditions_in_all_cases": "both partners purified", "key": {"MBP-NF2 (18-595) WT": {"biological_target": "T1, MBP-NF2 (18-595) WT (UniProt P35240 18-595)", "T1 construct": "also called MBP-NF2 WT; MBP-NF2 FL; source: purified (amylose resin, Superdex 200); not shown: MBP, N-terminal, kept", "T1 sequence (looked up)": "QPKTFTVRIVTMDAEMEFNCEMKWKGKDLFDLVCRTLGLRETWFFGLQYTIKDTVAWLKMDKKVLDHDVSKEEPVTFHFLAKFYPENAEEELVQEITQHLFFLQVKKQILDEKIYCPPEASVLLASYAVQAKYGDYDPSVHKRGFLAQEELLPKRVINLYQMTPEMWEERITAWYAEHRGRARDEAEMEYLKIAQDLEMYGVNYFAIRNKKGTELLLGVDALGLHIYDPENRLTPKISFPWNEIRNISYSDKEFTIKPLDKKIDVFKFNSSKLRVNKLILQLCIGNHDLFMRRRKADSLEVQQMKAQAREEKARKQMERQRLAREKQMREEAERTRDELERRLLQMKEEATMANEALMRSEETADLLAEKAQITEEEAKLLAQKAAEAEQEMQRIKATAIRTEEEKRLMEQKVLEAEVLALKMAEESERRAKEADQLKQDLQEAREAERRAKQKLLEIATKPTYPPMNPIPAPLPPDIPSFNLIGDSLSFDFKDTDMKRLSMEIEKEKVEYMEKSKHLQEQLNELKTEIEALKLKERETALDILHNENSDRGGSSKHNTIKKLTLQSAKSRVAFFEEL", "assay": "pull-down; MBP-NF2 bound to MBP resin in PBS 1 h at 4 °C, incubated with purified SUMO-TEAD4 in PBS 1 h at 4 °C, washed four times; SDS-PAGE and anti-6xHis blot"}, "MBP-NF2 A585W mutant": {"biological_target": "T2, MBP-NF2 A585W mutant (UniProt P35240 18-595, A585W)", "T2 construct": "source: purified as MBP-NF2; not shown: MBP, N-terminal, kept", "T2 sequence (looked up)": "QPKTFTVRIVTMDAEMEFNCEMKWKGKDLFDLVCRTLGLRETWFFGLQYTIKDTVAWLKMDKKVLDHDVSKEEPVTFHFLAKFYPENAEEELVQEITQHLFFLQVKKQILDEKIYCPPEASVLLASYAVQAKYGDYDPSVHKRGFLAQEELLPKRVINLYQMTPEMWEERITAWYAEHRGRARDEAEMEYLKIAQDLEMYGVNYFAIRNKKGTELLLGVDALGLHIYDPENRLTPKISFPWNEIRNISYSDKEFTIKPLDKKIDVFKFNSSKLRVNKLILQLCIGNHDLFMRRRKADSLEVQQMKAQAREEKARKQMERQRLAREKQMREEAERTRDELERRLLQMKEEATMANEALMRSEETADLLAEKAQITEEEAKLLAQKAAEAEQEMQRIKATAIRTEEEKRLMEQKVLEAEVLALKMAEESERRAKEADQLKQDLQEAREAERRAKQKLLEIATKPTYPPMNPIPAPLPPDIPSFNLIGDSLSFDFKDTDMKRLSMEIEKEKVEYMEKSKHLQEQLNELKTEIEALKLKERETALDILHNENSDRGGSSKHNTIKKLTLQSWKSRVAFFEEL", "assay": "pull-down; MBP-NF2 bound to MBP resin in PBS 1 h at 4 °C, incubated with purified SUMO-TEAD4 in PBS 1 h at 4 °C, washed four times; SDS-PAGE and anti-6xHis blot"}, "[1]": {"biological_target": "T3, full-length NF2 with GST tag (UniProt P35240 1-595)", "T3 construct": "NF2 (Merlin), full length; also called GST-NF2; GST-NF2-FL; source: Escherichia coli, purified", "T3 sequence (looked up)": "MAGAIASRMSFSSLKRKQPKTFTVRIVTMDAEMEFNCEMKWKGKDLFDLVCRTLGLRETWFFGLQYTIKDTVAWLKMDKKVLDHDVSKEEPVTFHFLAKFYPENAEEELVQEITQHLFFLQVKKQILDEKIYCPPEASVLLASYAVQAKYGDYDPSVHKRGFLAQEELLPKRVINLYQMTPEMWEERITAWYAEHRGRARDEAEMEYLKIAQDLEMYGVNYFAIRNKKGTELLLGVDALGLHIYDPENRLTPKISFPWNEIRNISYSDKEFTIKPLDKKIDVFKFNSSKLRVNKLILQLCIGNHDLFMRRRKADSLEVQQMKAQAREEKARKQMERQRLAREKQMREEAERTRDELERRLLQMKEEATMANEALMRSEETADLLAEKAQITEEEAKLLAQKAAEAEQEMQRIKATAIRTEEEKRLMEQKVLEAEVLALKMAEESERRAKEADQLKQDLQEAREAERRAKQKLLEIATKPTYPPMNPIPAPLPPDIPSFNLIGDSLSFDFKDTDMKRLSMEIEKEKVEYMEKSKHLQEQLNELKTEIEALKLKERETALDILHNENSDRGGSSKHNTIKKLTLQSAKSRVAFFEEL", "assay": "pull-down; GST-NF2 (full length, truncations) bound to GST resin in PBS 1 h at 4 °C, incubated with purified SUMO-TEAD4 in PBS 1 h at 4 °C, washed four times; SDS-PAGE and anti-6xHis blot; in Figure 2C with or without co-incubated FERM domain"}, "[2]": {"biological_target": "T4, GST-NF2 N-terminal FERM domain (1-341 aa) (UniProt P35240 1-341)", "T4 construct": "also called GST-NF2-FERM WT", "T4 sequence (looked up)": "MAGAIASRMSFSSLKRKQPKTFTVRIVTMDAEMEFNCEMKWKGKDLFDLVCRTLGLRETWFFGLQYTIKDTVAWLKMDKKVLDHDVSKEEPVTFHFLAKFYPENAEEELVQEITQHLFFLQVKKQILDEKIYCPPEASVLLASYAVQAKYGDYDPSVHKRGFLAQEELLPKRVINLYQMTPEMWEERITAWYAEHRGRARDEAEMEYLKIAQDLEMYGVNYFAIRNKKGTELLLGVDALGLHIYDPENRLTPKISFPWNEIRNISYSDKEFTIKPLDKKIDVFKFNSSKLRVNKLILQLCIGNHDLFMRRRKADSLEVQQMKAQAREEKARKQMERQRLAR", "assay": "pull-down; GST-NF2 (full length, truncations) bound to GST resin in PBS 1 h at 4 °C, incubated with purified SUMO-TEAD4 in PBS 1 h at 4 °C, washed four times; SDS-PAGE and anti-6xHis blot; in Figure 2C with or without co-incubated FERM domain"}, "[3]": {"biological_target": "T5, GST-NF2 C-terminal half (342-595 aa) (UniProt P35240 342-595)", "T5 sequence (looked up)": "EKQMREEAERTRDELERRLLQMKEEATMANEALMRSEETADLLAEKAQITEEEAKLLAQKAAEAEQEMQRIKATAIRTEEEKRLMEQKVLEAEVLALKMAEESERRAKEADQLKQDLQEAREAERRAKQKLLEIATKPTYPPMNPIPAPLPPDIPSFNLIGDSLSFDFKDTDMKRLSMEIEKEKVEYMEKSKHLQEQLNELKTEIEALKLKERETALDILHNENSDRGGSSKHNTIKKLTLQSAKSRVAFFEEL", "assay": "pull-down; GST-NF2 (full length, truncations) bound to GST resin in PBS 1 h at 4 °C, incubated with purified SUMO-TEAD4 in PBS 1 h at 4 °C, washed four times; SDS-PAGE and anti-6xHis blot; in Figure 2C with or without co-incubated FERM domain"}, "[4]": {"biological_target": "B1", "assay": "pull-down; GST-NF2 (full length, truncations) bound to GST resin in PBS 1 h at 4 °C, incubated with purified SUMO-TEAD4 in PBS 1 h at 4 °C, washed four times; SDS-PAGE and anti-6xHis blot; in Figure 2C with or without co-incubated FERM domain"}, "[5]": {"biological_target": "B1", "assay": "pull-down; in vitro competitive binding assay: YAP-TEAD4 complex on GST-YAP with a dose addition of NF2; SDS-PAGE"}}}
{"binder": "B1", "values": [{"measurement": "binding result", "setting": "MBP-NF2 (18-595) WT", "value": "binds"}, {"measurement": "binding result", "setting": "MBP-NF2 A585W mutant", "value": "binds"}, {"measurement": "binding result", "setting": "[1]", "value": "binds"}, {"measurement": "binding result", "setting": "[2]", "value": "binds"}, {"measurement": "binding result", "setting": "[3]", "value": "binds"}]}
{"binder": "KLKERETALDILHNENSDRGGSSKHNTIKKLTLQSAKSRVAFFEEL (domain or fragment, UniProt P35240 550-595, looked up, also called C-terminal tail)", "note": "[GST-NF2 tail region (C-tail, 550-595 aa)]", "values": [{"measurement": "binding result", "setting": "[4]", "value": "binds"}]}
{"binder": "B2", "values": [{"measurement": "binding result", "setting": "[4]", "value": "binds"}]}
{"binder": "B3", "values": [{"measurement": "binding result", "setting": "[5]", "value": "binds"}]}
{"binder": "B4", "values": [{"measurement": "binding result", "setting": "MBP-NF2 (18-595) WT", "value": "binds"}]}
